The source of these data is patent publication US20020155577A1 (AVENTIS PHARMA S A, published 2002).

For this test, the target named is T1, PAP1 (Parkin Associated Protein 1) fragment encoded by the insert of library plasmid pGAD-Ly111b, fused to … (human, UniProt Q4VX76 267-610).
T1 construct: Prey of the yeast two-hybrid test; It is a partial PAP1 clone from a human peripheral lymphocyte cDNA library; Any linker between GAL4 and the insert is not described; also called fragment of PAP1; plasmid isolated during the screening of the two-hybrid library
T1 sequence: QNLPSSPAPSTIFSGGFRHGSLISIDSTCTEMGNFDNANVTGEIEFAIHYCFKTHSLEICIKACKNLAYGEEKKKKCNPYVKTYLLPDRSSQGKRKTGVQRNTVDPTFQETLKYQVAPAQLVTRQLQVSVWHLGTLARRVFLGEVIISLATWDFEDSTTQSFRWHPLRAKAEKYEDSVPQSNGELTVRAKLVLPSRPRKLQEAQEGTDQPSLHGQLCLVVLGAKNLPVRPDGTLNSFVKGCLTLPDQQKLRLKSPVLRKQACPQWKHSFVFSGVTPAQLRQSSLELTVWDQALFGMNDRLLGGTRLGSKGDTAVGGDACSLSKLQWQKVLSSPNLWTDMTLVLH
Description: yeast two-hybrid in strain L40, beta-Gal activity assay. The protocol:
A sheet of nitrocellulose is preplaced on the Petri dish containing the yeast clones, which are separated from each other. This sheet is then immersed in liquid nitrogen for 30 seconds, in order to rupture the yeasts and thus to release the β-galactosidase activity. After thawing, the sheet of nitrocellulose is placed, colonies facing upwards, in another Petri dish containing a Whatman paper which has been presoaked in 1.5 ml of PBS solution (60 mM Na₂HPO₄, 40 mM NaH₂PO₄, 10 mM KCl, 1 mM MgSO₄, pH 7) containing 15 μl of X-Gal (5-bromo-4-chloro-3-indoyl-β-D-galactoside) at 40 mg/ml of N,N-dimethylformamide. The dish is then placed in an incubator at 37° C. The assay is termed positive when the colonies on the membrane turn blue after 12 hours.
To determine the specificity of interaction between the fragment corresponding to the PAP1 protein and the central region of parkin, a two-hybrid test for specific interaction with other nonrelevant proteins was carried out. To carry out this test, we transformed strain L40 with the control plasmids plex9-cAPP or pLex9-HaRasVal12, in place of the plasmid pLex9-parkin (135-290), which respectively encode the cytoplasmic domain of the APP or the HaRasVal12 protein, which are fused to the LexA DNA binding domain, and with the plasmid isolated during the screening of the two-hybrid library. […]

B1: central region of parkin (amino acids 135-290) fused to the LexA bacterial repressor, from vector pLex9-parkin (135-290) (other)
chain: GSPAGRSIYNSFYVYCKGPCQRVQPGKLRVQCSTCRQATLTLTQGPSCWDDVLIPNRMSGECQSPHCPGTSAEFFFKCGAHPTSDKETSVALHLIATNSRNITCITCTDVRSPVLVFQCNSRHVICLDCFHLYCVTRLNDRQFVHDPQLGYSLPCV
notes: also called central portion of parkin; not shown: LexA bacterial repressor as encoded by vector pLex9 (pBTM116)
For the molecule B1, the binding result is listed as “binds”.
